# Biological target: the molecule itself
# Experiment: cryo-EM structure
protein,measurement,value
human neutral amino acid transporter ASCT2 (natural protein) MVADPPRDSKGLAAAEPTANGGLALASIEDQGAAAGGYCGSRDQVRRCLRANLLVLLTVVAVVAGVALGLGVSGAGGALALGPERLSAFVFPGELLLRLLRMIILPLVVCSLIGGAASLDPGALGRLGAWALLFFLVTTLLASALGVGLALALQPGAASAAINASVGAAGSAENAPSKEVLDSFLDLARNIFPSNLVSAAFRSYSTTYEERNITGTRVKVPVGQEVEGMNILGLVVFAIVFGVALRKLGPEGELLIRFFNSFNEATMVLVSWIMWYAPVGIMFLVAGKIVEMEDVGLLFARLGKYILCCLLGHAIHGLLVLPLIYFLFTRKNPYRFLWGIVTPLATAFGTSSSSATLPLMMKCVEENNGVAKHISRFILPIGATVNMDGAALFQCVAAVFIAQLSQQSLDFVKIITILVTATASSVGAAGIPAGGVLTLAIILEAVNLPVDHISLILAVDWLVDRSCTVLNVEGDALGAGLLQNYVDRTESRSTEPELIQVKSELPLDPLPVPTEEGNPLLKHYRGPAGDATVASEKESVM,stoichiometry N,3

# Source: article PMC11297037 (Nature Communications, 2024)
